# Results reported in US20170307612.
# Experiments:
# [1] = test system: hemagglutinin of highly pathogenic influenza virus H5N1_01
# [2] = test system: hemagglutinin of highly pathogenic influenza virus H5N1_02
# [3] = test system: hemagglutinin of highly pathogenic influenza virus H5N6
# [4] = test system: hemagglutinin of lowly pathogenic influenza virus H1N1 (Experimental Example 4)
# [5] = test system: hemagglutinin of lowly pathogenic influenza virus H1N1_01
# [6] = test system: hemagglutinin of lowly pathogenic influenza virus H1N1_02
# [7] = test system: hemagglutinin of lowly pathogenic influenza virus H2N1
# [8] = test system: hemagglutinin of lowly pathogenic influenza virus H2N4
# [9] = test system: hemagglutinin of lowly pathogenic influenza virus H3N2 (Experimental Example 4)
# [10] = test system: hemagglutinin of lowly pathogenic influenza virus H3N8
# [11] = test system: hemagglutinin of lowly pathogenic influenza virus H7N7
# [12] = test system: hemagglutinin of lowly pathogenic influenza virus H7N9
# [13] = test system: hemagglutinin of lowly pathogenic influenza virus H9N2 (Experimental Example 4)
# [14] = test system: hemagglutinin of lowly pathogenic influenza virus H9N2_01
# [15] = test system: hemagglutinin of lowly pathogenic influenza virus H9N2_02
substance,measurement,setting,value
furin,"fluorescence intensity of probe of Preparation Example 1, furin only, pH 5.5",[1],2840
same,"fluorescence intensity of probe of Preparation Example 2, furin only, pH 5.5",[1],4680
same,"fluorescence intensity of probe of Preparation Example 3, furin only, pH 5.5",[1],4330
same,"fluorescence intensity of probe of Preparation Example 1, furin only, pH 5.5",[2],2130
same,"fluorescence intensity of probe of Preparation Example 2, furin only, pH 5.5",[2],4840
same,"fluorescence intensity of probe of Preparation Example 3, furin only, pH 5.5",[2],5000
same,"fluorescence intensity of probe of Preparation Example 1, furin only, pH 5.5",[3],2420
same,"fluorescence intensity of probe of Preparation Example 2, furin only, pH 5.5",[3],2720
same,"fluorescence intensity of probe of Preparation Example 3, furin only, pH 5.5",[3],2250
same,"fluorescence intensity of probe of Example 4-1, furin only, pH 5.5",[4],"3,721"
same,"fluorescence intensity of probe of Example 4-2, furin only, pH 5.5",[4],"3,955"
same,"fluorescence intensity of probe of Example 4-3, furin only, pH 5.5",[4],"4,344"
same,"fluorescence intensity of probe of Preparation Example 1, furin only, pH 5.5",[5],492
same,"fluorescence intensity of probe of Preparation Example 2, furin only, pH 5.5",[5],374
same,"fluorescence intensity of probe of Preparation Example 3, furin only, pH 5.5",[5],327
same,"fluorescence intensity of probe of Preparation Example 1, furin only, pH 5.5",[6],594
same,"fluorescence intensity of probe of Preparation Example 2, furin only, pH 5.5",[6],364
same,"fluorescence intensity of probe of Preparation Example 3, furin only, pH 5.5",[6],490
same,"fluorescence intensity of probe of Preparation Example 1, furin only, pH 5.5",[7],371
same,"fluorescence intensity of probe of Preparation Example 2, furin only, pH 5.5",[7],333
same,"fluorescence intensity of probe of Preparation Example 3, furin only, pH 5.5",[7],569
same,"fluorescence intensity of probe of Preparation Example 1, furin only, pH 5.5",[8],426
same,"fluorescence intensity of probe of Preparation Example 2, furin only, pH 5.5",[8],347
same,"fluorescence intensity of probe of Preparation Example 3, furin only, pH 5.5",[8],477
same,"fluorescence intensity of probe of Example 4-1, furin only, pH 5.5",[9],"4,697"
same,"fluorescence intensity of probe of Example 4-2, furin only, pH 5.5",[9],"4,953"
same,"fluorescence intensity of probe of Example 4-3, furin only, pH 5.5",[9],"1,731"
same,"fluorescence intensity of probe of Preparation Example 1, furin only, pH 5.5",[10],399
same,"fluorescence intensity of probe of Preparation Example 2, furin only, pH 5.5",[10],442
same,"fluorescence intensity of probe of Preparation Example 3, furin only, pH 5.5",[10],313
same,"fluorescence intensity of probe of Preparation Example 1, furin only, pH 5.5",[11],432
same,"fluorescence intensity of probe of Preparation Example 2, furin only, pH 5.5",[11],401
same,"fluorescence intensity of probe of Preparation Example 3, furin only, pH 5.5",[11],575
same,"fluorescence intensity of probe of Preparation Example 1, furin only, pH 5.5",[12],545
same,"fluorescence intensity of probe of Preparation Example 2, furin only, pH 5.5",[12],461
same,"fluorescence intensity of probe of Preparation Example 3, furin only, pH 5.5",[12],528
same,"fluorescence intensity of probe of Example 4-1, furin only, pH 5.5",[13],"3,134"
same,"fluorescence intensity of probe of Example 4-2, furin only, pH 5.5",[13],"3,703"
same,"fluorescence intensity of probe of Example 4-3, furin only, pH 5.5",[13],"4,218"
same,"fluorescence intensity of probe of Preparation Example 1, furin only, pH 5.5",[14],353
same,"fluorescence intensity of probe of Preparation Example 2, furin only, pH 5.5",[14],443
same,"fluorescence intensity of probe of Preparation Example 3, furin only, pH 5.5",[14],461
same,"fluorescence intensity of probe of Preparation Example 1, furin only, pH 5.5",[15],418
same,"fluorescence intensity of probe of Preparation Example 2, furin only, pH 5.5",[15],571
same,"fluorescence intensity of probe of Preparation Example 3, furin only, pH 5.5",[15],306
trypsin,"fluorescence intensity of probe of Preparation Example 1, trypsin only, pH 5.5",[1],2950
same,"fluorescence intensity of probe of Preparation Example 2, trypsin only, pH 5.5",[1],4000
same,"fluorescence intensity of probe of Preparation Example 3, trypsin only, pH 5.5",[1],3410
same,"fluorescence intensity of probe of Preparation Example 1, trypsin only, pH 5.5",[2],2960
same,"fluorescence intensity of probe of Preparation Example 2, trypsin only, pH 5.5",[2],4540
same,"fluorescence intensity of probe of Preparation Example 3, trypsin only, pH 5.5",[2],4360
same,"fluorescence intensity of probe of Preparation Example 1, trypsin only, pH 5.5",[3],2740
same,"fluorescence intensity of probe of Preparation Example 2, trypsin only, pH 5.5",[3],2760
same,"fluorescence intensity of probe of Preparation Example 3, trypsin only, pH 5.5",[3],2030
same,"fluorescence intensity of probe of Example 4-1, trypsin only, pH 5.5",[4],"17,689"
same,"fluorescence intensity of probe of Example 4-2, trypsin only, pH 5.5",[4],"17,581"
same,"fluorescence intensity of probe of Example 4-3, trypsin only, pH 5.5",[4],"15,674"
same,"fluorescence intensity of probe of Preparation Example 1, trypsin only, pH 5.5",[5],3350
same,"fluorescence intensity of probe of Preparation Example 2, trypsin only, pH 5.5",[5],4020
same,"fluorescence intensity of probe of Preparation Example 3, trypsin only, pH 5.5",[5],3720
same,"fluorescence intensity of probe of Preparation Example 1, trypsin only, pH 5.5",[6],4550
same,"fluorescence intensity of probe of Preparation Example 2, trypsin only, pH 5.5",[6],4720
same,"fluorescence intensity of probe of Preparation Example 3, trypsin only, pH 5.5",[6],3150
same,"fluorescence intensity of probe of Preparation Example 1, trypsin only, pH 5.5",[7],2210
same,"fluorescence intensity of probe of Preparation Example 2, trypsin only, pH 5.5",[7],2120
same,"fluorescence intensity of probe of Preparation Example 3, trypsin only, pH 5.5",[7],2060
same,"fluorescence intensity of probe of Preparation Example 1, trypsin only, pH 5.5",[8],4020
same,"fluorescence intensity of probe of Preparation Example 2, trypsin only, pH 5.5",[8],3090
same,"fluorescence intensity of probe of Preparation Example 3, trypsin only, pH 5.5",[8],3460
same,"fluorescence intensity of probe of Example 4-1, trypsin only, pH 5.5",[9],"19,192"
same,"fluorescence intensity of probe of Example 4-2, trypsin only, pH 5.5",[9],"16,812"
same,"fluorescence intensity of probe of Example 4-3, trypsin only, pH 5.5",[9],"16,362"
same,"fluorescence intensity of probe of Preparation Example 1, trypsin only, pH 5.5",[10],3600
same,"fluorescence intensity of probe of Preparation Example 2, trypsin only, pH 5.5",[10],4070
same,"fluorescence intensity of probe of Preparation Example 3, trypsin only, pH 5.5",[10],3400
same,"fluorescence intensity of probe of Preparation Example 1, trypsin only, pH 5.5",[11],2600
same,"fluorescence intensity of probe of Preparation Example 2, trypsin only, pH 5.5",[11],2070
same,"fluorescence intensity of probe of Preparation Example 3, trypsin only, pH 5.5",[11],2510
same,"fluorescence intensity of probe of Preparation Example 1, trypsin only, pH 5.5",[12],3990
same,"fluorescence intensity of probe of Preparation Example 2, trypsin only, pH 5.5",[12],4600
same,"fluorescence intensity of probe of Preparation Example 3, trypsin only, pH 5.5",[12],3250
same,"fluorescence intensity of probe of Example 4-1, trypsin only, pH 5.5",[13],"18,345"
same,"fluorescence intensity of probe of Example 4-2, trypsin only, pH 5.5",[13],"18,950"
same,"fluorescence intensity of probe of Example 4-3, trypsin only, pH 5.5",[13],"18,035"
same,"fluorescence intensity of probe of Preparation Example 1, trypsin only, pH 5.5",[14],3750
same,"fluorescence intensity of probe of Preparation Example 2, trypsin only, pH 5.5",[14],4580
same,"fluorescence intensity of probe of Preparation Example 3, trypsin only, pH 5.5",[14],3510
same,"fluorescence intensity of probe of Preparation Example 1, trypsin only, pH 5.5",[15],3280
same,"fluorescence intensity of probe of Preparation Example 2, trypsin only, pH 5.5",[15],4720
same,"fluorescence intensity of probe of Preparation Example 3, trypsin only, pH 5.5",[15],3730
